From US20230106715A1 (BIOSION, published 2023)

T1: human Siglec15-mouse Fc protein (human)
T1 construct: In house made
T1 chain: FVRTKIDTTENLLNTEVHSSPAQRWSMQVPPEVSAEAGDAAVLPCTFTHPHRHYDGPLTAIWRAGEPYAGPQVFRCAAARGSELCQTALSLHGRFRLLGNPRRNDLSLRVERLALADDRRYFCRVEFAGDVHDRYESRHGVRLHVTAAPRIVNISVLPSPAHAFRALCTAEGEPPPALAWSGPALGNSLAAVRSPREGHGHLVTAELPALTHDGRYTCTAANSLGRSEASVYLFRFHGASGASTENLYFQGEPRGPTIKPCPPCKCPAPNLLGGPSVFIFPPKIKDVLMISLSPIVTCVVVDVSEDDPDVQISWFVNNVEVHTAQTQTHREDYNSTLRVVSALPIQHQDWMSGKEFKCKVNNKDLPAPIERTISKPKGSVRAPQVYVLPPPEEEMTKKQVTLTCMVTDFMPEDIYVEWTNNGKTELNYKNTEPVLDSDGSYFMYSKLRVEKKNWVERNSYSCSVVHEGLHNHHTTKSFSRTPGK

T2: mouse Siglec15-his protein (mouse)
T2 construct: In house made
T2 chain: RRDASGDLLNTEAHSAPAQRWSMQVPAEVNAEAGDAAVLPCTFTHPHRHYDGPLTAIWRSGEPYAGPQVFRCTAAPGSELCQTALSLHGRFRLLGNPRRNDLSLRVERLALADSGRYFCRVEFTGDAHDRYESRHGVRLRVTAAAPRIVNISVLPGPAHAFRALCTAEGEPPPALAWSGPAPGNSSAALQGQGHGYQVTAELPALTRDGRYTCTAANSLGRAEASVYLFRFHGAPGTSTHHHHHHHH

T3: recombinant human Siglec15-his protein (human, UniProt Q6ZMC9 20-263)
T3 construct: In house made; Biotin-labeled in the capture ELISA
T3 sequence: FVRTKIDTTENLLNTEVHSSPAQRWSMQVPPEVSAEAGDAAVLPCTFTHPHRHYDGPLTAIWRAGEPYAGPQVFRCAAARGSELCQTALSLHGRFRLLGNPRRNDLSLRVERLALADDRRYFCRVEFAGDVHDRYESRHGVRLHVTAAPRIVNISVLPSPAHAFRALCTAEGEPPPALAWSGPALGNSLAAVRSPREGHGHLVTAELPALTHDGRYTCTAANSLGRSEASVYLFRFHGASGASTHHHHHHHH


Experiments:
[1] = target: T1, human Siglec15-mouse Fc protein; test: cell based blocking FACS: human Siglec15-mouse Fc in solution, blocked ligand human LRRC4C on LRRC4C-3F12-1B9 cells
Experimental: The activities of the anti-Siglec15 antibodies to block binding of Siglec15 protein to cell surface LRRC4C were evaluated by Flow Cytometry (FACS), using in house made LRRC4C-3F12-1B9 cells. Briefly, HEK-293 cells (ATCC #CRL-1573) were transfected with pCMV-T-P plasmid constructs with the nucleotide sequence encoding human LRRC4C (amino acid residues Met1-Ile640 of uniprot #Q9HCJ2) inserted between EcoRI and XbaI, following the instruction of lipofectamine 3000 transfection reagent (Thermo Fisher). A stable cell named LRRC4C-3F12-1B9 was chosen for subsequent cell based ligand-blocking assay.
Briefly, the anti-Siglec15 antibodies of the disclosure or controls were diluted with human Siglec15-mouse Fc protein (prepared in-house with SEQ ID NO: 26, 8 μg/ml […] in FACS buffer), starting at 66.67 nM with a 5-fold serial dilution, and incubated at room temperature for 40 minutes. Then, LRRC4C-3F12-1B9 cells were harvested from cell culture flasks, washed twice and re-suspended in PBS containing 2% v/v Fetal Bovine Serum (FACS buffer). Then, 1×10⁵ cells per well in 96 well-plates were incubated in 100 μL of the antibody/Siglec15-mouse Fc mixtures for 40 minutes at 4° C. […] Cells were washed twice and re-suspended in FACS buffer. Fluorescence was measured using a Becton Dickinson FACS Canto II-HTS equipment. Data was analyzed using Graphpad Prism software and IC₅₀ values were reported.

[2] = target: T2, mouse Siglec15-his protein; test: SPR Biacore T200, antibody captured by anti-mouse IgG, antigen as analyte, 1:1 fit
Experimental: (§1) Briefly, goat anti-mouse IgG (GE healthcare, Cat #BR100838, Mouse Antibody Capture Kit) was covalently linked to a CM5 chip (carboxy methyl dextran coated chip from GE healthcare, Cat #BR100530) via primary amines using a standard amine coupling kit (GE healthcare, Pittsburgh, Pa., USA) provided by Biacore. Un-reacted moieties on the biosensor surface were blocked with ethanolamine. The purified mouse anti-Siglec15 antibodies of the disclosure at the concentration of 13.3 nM, were respectively flowed onto the chip at a flow rate of 10 μL/min. Then, serially diluted human Siglec15-his protein (in house made, amino acid sequence set forth in SEQ ID NO: 20), cynomolgus monkey Siglec15-his protein (in house made, amino acid sequence set forth in SEQ ID NO: 21), or mouse Siglec15-his protein (in house made, amino acid sequence set forth in SEQ ID NO: 22), 2-fold dilution in HBS-EP⁺ buffer (provided by Biacore) starting at 80 nM, were flowed onto the chip at a flow rate of 30 μL/min. The antigen-antibody association kinetics was followed for 2 minutes and the dissociation kinetics was followed for 10 minutes. The association and dissociation curves were fit to a 1:1 Langmuir binding model using BIAcore evaluation software.

[3] = target: T3, recombinant human Siglec15-his protein; test: as above
Experimental: as §1

Binder	IC50 [1] [nM]	Kd [2] [nM]	koff [2] [s⁻¹]	kon [2] [M⁻¹ s⁻¹]	Kd [3] [nM]	koff [3] [s⁻¹]	kon [3] [M⁻¹ s⁻¹]
B2D7H7A3C1 (antibody, V domains shown, Mouse monoclonal antibody from hybridoma; also called mouse B2D7H7A3C1) VH: QVQLQQSGAELVRPGTSVQMSCKAAGYTFTNYWIGWVKQRPGHGLEWVGDIHPGINYTNNNEKFRGKATLTADTSSNTAYMQLRGLTSDDSAIYYCARVDYDYDGSYIMDYWGQGTSVTVSS VL: QIVLSQSPALLSASPGEKVTMTCRASSSVSYMYWYQQKPGSSPKPWIYATSNLTSGVPARFSGSGSGTSYSLTISRVEAEDAATYFCQQWNSKPWTFGGGSKLEIR		0.337	0.00445	1.32e+07	0.0352	5.46e-05	1.55e+06
A2A5C7E8 (antibody, V domains shown, Fully human antibody from transgenic mouse hybridoma; also called A2A5C7E8-1) VH: EVQLVQSGAEVKKPGESLRISCKGSGYSFTTYWISWVRQMPGKGLEWMGLIDPSDSYTNYSPSFQGHVTISTDKSISTAYLQWSSLKASDTAMYYCARGGYYGSEEDYWGQGTLVTVSS VL: EIVLTQSPGTLSLSPGERATLSCRASQSVSSSRLAWFQQKSGQAPRLLIFDASSRATGIPDRFSGSGSGTDFTLTISRLEPEDFAVYYCQQYGSSPRTFGQGTKVEFK	2.07						
anti-Siglec15 benchmark (ch5G12) (antibody, human IgG1, kappa, V domains shown, ch5G12 (US 20190202912A1); also called BM; Siglec15-ch5G9) VH: QVQLQQPGAELVKPGASVKMSCKASGYTFTSYWITWVIQRPGQGLEWIGDIYCGSDTMHYNEKFKNKATLTVDTSSSTAYMQLSSLTSEDSAVYYCARWWDYGSSYDYFDYWGQGTTLTVSS VL: DIKMTQSPSSMYASLGERVTITCKASQDINSYLSWFQQKPGKSPKTLIYRANRLVDGVPSRFSGSGSGQDYSLTISSLEYEDMGIYYCLQYDEFPYTFGGGTKLEIKR	0.586						

Results, then the binder that gave them:

IC50 [1] [nM]	Kd [2] [nM]	koff [2] [s⁻¹]	kon [2] [M⁻¹ s⁻¹]	Kd [3] [nM]	koff [3] [s⁻¹]	kon [3] [M⁻¹ s⁻¹]	Binder
3.78							A1E10G7H9 (antibody, V domains shown, Fully human antibody from transgenic mouse hybridoma) VH: QVQLQESGPGLVKPSGTLSLTCAVSGGSISSSNWWHWVRQPPGKGLEWIGEIYHSGNTNYKPSLKSRVTISVDKSKNQFSLKLSSVTAADTAVYYCARDEGNGWSNAFDIWGQGTMVTVSS VL: ENVLTQSPGTLSLSPGERVTLSCRASQSVSSSYLAWYQQKPGQAPRFLIYGASGGATGIPDRFSGSGSGTDFTLTISRLEPEDFAVYYCQQYGSSPITFGQGTRLEIK
	0.423	0.0108	2.55e+07	0.00858	1.76e-05	2.05e+06	B2G12H3E8 (antibody, V domains shown, Mouse monoclonal antibody from hybridoma; also called mouse B2G12H3E8) VH: QVQLKQSGAELVRPGTSVQMSCKAVGYTFTNYWIGWVKQRPGHGLEWVGDIHPGINYTNNNEKFRGKATLTADTSSSTAYMQLRGLTSDDSAIYYCARVDYDYDGSYIMDYWGQGTSVTVSS VL: QIVLSQSPALLSASPGEKVTMTCRASSSVSYMYWYQQKPGSSPKPWIYATSNLTSGVPARFSGSGSGTSYSLTISRVEAEDAATYFCQQWNSKPWTFGGGSKLEIR
	0.39	0.00737	1.89e+07	0.016	3.18e-05	1.99e+06	B2H2H1H7 (antibody, V domains shown, Mouse monoclonal antibody from hybridoma; also called mouse B2H2H1H7; B2H2H1A7) VH: QVQLQQSGAELVRPGTSVQMSCKAAGYTFTNYWIGWVKQRPGHGLEWVGDIHPGINYTNNNEKFRGKATLTADTSSSTAYMQLRGLTSDDSAIYYCARVDYDYDGSYIMDYWGQGTSVTVSS VL: QIILSQSPALLSASPGEKVTMTCRASSSVSYMYWYQQKPGSSPKPWIYATSNLTSGVPARFSGSGSGTSYSLTISRVEAEDAATYFCQQWNSKPWTFGGGSRLEIR
